Results taken from publication PMC2992532, “A tryptophan-rich peptide acts as a transcription activation domain” (BMC Molecular Biology, 2010).

Target: T1, LexA-TFIIB fusion protein (UniProt P29055 1-345)
T1 sequence (looked up): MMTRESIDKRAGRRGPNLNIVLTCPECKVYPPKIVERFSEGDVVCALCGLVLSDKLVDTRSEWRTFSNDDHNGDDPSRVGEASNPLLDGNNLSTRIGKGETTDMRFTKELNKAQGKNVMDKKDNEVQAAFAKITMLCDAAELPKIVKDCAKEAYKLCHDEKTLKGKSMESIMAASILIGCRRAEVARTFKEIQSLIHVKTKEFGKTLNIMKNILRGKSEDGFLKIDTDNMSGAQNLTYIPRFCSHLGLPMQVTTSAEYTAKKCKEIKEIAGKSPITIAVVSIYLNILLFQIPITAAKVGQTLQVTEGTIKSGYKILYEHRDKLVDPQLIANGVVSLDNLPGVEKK
Experiment: cell-based or functional assay

transcriptional activity (beta-gal reporter) of W7 fused to LexA, relative to the native pentapeptide WYDWW fused to LexA: ~3 fold
Binder: WWWWWWW [B42-W7 fusion protein (heptatryptophan, W7)]
